{
  "source": "the DeepSol protein solubility set",
  "data": [
    {"assay": "soluble on expression in E. coli; label from the status in PepcDB or PDB records", "values": [
      {"sequence": "RDIIQYIPARSSYGTPPFVPPGPSPYVGTGMQEYRKLRSTLDKSHSELKKNLKNETLKEVDELKSEAGLPGKAVSANDIRDEKSIVDALMDAKAKSLKAIEDRPANLYTASDFPQKSESMYQSQLLASRKFYGEFLDRHMSELAKAYSADIYKAQIAILKQTSQELENKARSLEAEAQRAAAEVEADYKARKANVEKKVQSELDQAGNALPQLTNPTPEQWLERATQLVTQAIANKKKLQTANNALIAKAPNALEKQKATYNADLLVDEIASLQARLDKLNAETARRKEIARQAAIRAANTYAMPANGSVVATAAGRGLIQVAQGAASLAQAISDAIAVLGRVLASAPSVMAVGFASLTYSSRTAEQWQDQTPDSVRYALGMDAAKLGLPPSVNLNAVAKASGTVDLPMRLTNEARGNTTTLSVVSTDGVSVPKAVPVRMAAYNATTGLYEVTVPSTTAEAPPLILTWTPASPPGNQNPSSTTPVVPKPVPVYEGATLTPVKATPETYPGVITLPEDLIIGFPADSGIKPIYVMFRDPRDVPGAATGKGQPVSGNWLGAASQGEGAPIPSQIADKLRGKTFKNWRDFREQFWIAVANDPELSKQFNPGSLAVMRDGGAPYVRESEQAGGRIKIEIHHKVRIADGGGVYNMGNLVAVTPKRHIEIHKGGK", "soluble on expression in E. coli": "not soluble"},
      {"sequence": "MGSDKIHHHHHHMSHLALQPGFDFQQAGKEVLEIEREGLAELDQYINQHFTLACEKMFNCTGKVVVMGMGKSGHIGRKMAATFASTGTSSFFVHPGEAAHGDLGMVTPQDVVIAISNSGESSEIAALIPVLKRLHVPLICITGRPESSMARAADVHLCVKVPKEACPLGLAPTSSTTATLVMGDALAVALLKARGFTAEDFALSHPGGALGRKLLLRVSDIMHTGDEIPHVNKHATLRDALLEITRKNLGMTVICDESMKIDGIFTDGDLRRVFDMGGDMRQLGIAEVMTPGGIRVRPGILAVDALNLMQSRHITSVLVADGDQLLGVLHMHDLLRAGVV", "soluble on expression in E. coli": "not soluble"},
      {"sequence": "MAEDEIVVEEEQSQPQEITPVPPSSSSSPSLVVEDDDEMKLKHLEFIQVAAVYFAACFSTLYELAKDNAGPLKLGVENIEDCVRTVLAPLYEKFHDVPFKLLLFVDRKVDDVFFDVETYVPSLVKQASSQALTVATEVQRTGVVDTTKSIARSVRDKYEPAAEYYAATLWRLLNQLPLFPEVAHLVIPTAFYWSEKYNDAVRYVGDRDYFGAEYLPMIPIEKISDILEQDQCRAD", "soluble on expression in E. coli": "not soluble"},
      {"sequence": "MGSDKIHHHHHHMNTDDILFSYGEEDIPLKALSFPIFETTNFYFDSFDEMSKALRNGDYEFVYKRGSNPTTRLVEKKLAALEECEDARLVASGMSAISLSILHFLSSGDHVVCVDEAYSWAKKFFNYLSKKFDIEVSYVPPDAERIVEAITKKTKLIYLESPTSMRMKVIDIRKVTEAAGELKIKTVIDNTWASPIFQKPKLLGVDVVVHSATKYISGHGDVMAGVIAGDVEDMKNIFVDEYKNIGPVLSPIEAWLILRGLRTLELRMKKHYENALVVSDFLMDHPKVLEVNYPMNPRSPQYELASSQMSGGSGLMSFRLKTDSAEKVKEFVESLRVFRMAVSWGSHENLVVPRVAYGDCPKKDVNLIRIHVGLGDPEKLVEDLDQALKKI", "soluble on expression in E. coli": "not soluble"},
      {"sequence": "MPGIRGPSEYSQEPPRHPSLKVNAKEPFNAEPPRSALVSSYVTPVDLFYKRNHGPIPIVDHLQSYSVTLTGLIQNPRKLFIKDIRSLPKYNVTATLQCAGNRRTAMSKVRNVRGVGWDVSAIGNAVWGGAKLADVLELVGIPKLTASTNLGARHVEFVSVDRCKEENGGPYKASITLSQATNPEADVLLAYEMNGETLNRDHGFPLRVVVPGVIGARSVKWLDSINVIAEESQGFFMQKDYKMFPPSVNWDNINWSSRRPQMDFPVQSAICSVEDVQMVKPGKVSIKGYAVSGGGRGIERVDISLDGGKNWVEASRTQEPGKQYISEHSSSDKWAWVLFEATIDVSQTTEVIAKAVDSAANVQPENVESVWNLRGVLNTSWHRVLLRLGHSNL", "soluble on expression in E. coli": "soluble"},
      {"sequence": "MSLLYTTPRLNISAFLFMKQQLSFLFLLSGLLAGCSSTPNPNLEQINQFTGGKTIGDATSFYWYTESFQKPSSASDYVTSGDYGSYQTSYRWEEGQVREIRREGEHLDGKKLVPFRVHIRFSKEGEAVYQQYRLGGKVLPMNEEQLAHYVLQAKAVAEATKEQDKQGLELIQGYWNGKTFETCQGVEYQRVEFNQSLPSFVFNRLASIESYVAFLGKIRNGKVHIDELLLLDDAGHDCVKEPELLDEGHHHHHH", "soluble on expression in E. coli": "soluble"},
      {"sequence": "SAIITTTTVRFTDGTSPTFFSSASTKAYNLHFLYSNSTQRLTNPKFGIGGKLKVTVNPYSYTEEVRPEERKSLTDFLTEAGDFVNSDGGDGGPPRWFSPLECGARAPESPLLLYLPGIDGTGLGLIRQHKRLGEIFDIWCLHFPVKDRTPARDIGKLIEKTVRSEHYRFPNRPIYIVGESIGASLALDVAASNPDIDLVLILANPVTRFTNLMLQPVLALLEILPDGVPGLITENFGFYQEMFETMLNENDAAQMGRGLLGDFFATSSNLPTLIRIFPKDTLLWKLQLLKSASASANSQMDTVNAQTLILLSGRDQWLMNKEDIERLRGALPRCEVRELENNGQFLFLEDGVDLVSIIKRAYYYRRGKSLDYISDYILPTPFEFKEYEESQRLLTAVTSPVFLSTLKNGAVVRSLAGIPSEGPVLYVGNHMLLGMELHAIALHFLKERNILLRGLAHPLMFTKKTGSKLPDMQLYDLFRIIGAVPVSGMNFYKLLRSKAHVALYPGGVREALHRKGEEYKLFWPEHSEFVRIASKFGAKIIPFGVVGEDDLCEMVLDYDDQMKIPFLKNLIEEITQDSVNLRNDEEGELGKQDLHLPGIVPKIPGRFYAYFGKPIDTEGREKELNNKEKAHEVYLQVKSEVERCMNYLKIKRETDPYRNILPRSLYYLTHGFSSQIPTFDLRNH", "soluble on expression in E. coli": "not soluble"},
      {"sequence": "SREAVTVQVGGFANYVGSYFWNFQDELLGLADDPDADPVFKNAALDMDVLYRSGETHQGVATYCPRLVSVDSRGSLGSLSSSGNLGQSSTAADQLNVATWSGNVTRSVSKPHGRNLFLQSLVEEGQNPSTSNGGSNSQKSVEYKDLIECLENGINFWTDYSKVHYHPQSLYELYGSWTDFDKFDNYGSAQEVVSDWSQIEEMNERLRFFVEECDHIQGIQFIVDDSGGFSSVAAQFLENIADDYTNTLVLLYCVRDPMTLGPSRRNQRESIMRALHDAVSFSKLSSFCNLMVPIGPPSLSRSCMSPYLYIQDEKPFHASAVCAAAIHSITVPFRLQRTGPSSDLAHSSGNLDIGELVHILSDQGRQNMVTALDVAMPAPSLTDRDAMGNIEMKLHSLTPEISDEDEDPYSVESLVVHGALDRGGQRTSISQVKDSVCSVYEARETKPKFSHLSASLCPLPVPLPFPSIFRGNIGRHGEILSDHTEESQPKGSLDIESIPMAARLRSSSAVLPFIERRSGSLQKHGVARGAIGSLVLHDWGFGREEVEDMAEHLAKLLGPFHPEMDLTSDSD", "soluble on expression in E. coli": "soluble"},
      {"sequence": "MKIHPLSDVQAKQIGQGTSIWQYVVVLPGAVIGSDCNICSHCFIENAVVIGDRVTIKCGVQIWDGLRVEDDVFIGPNVTFTNDLFPRSKQHPKEFAKTVIQKGASIGANATILAGSTIGRNAMVGAGAVVTKSVPPNAIVVGNPARITGYVSTIPAQQKHSEIEVGENIGTVGQSAIPGVQFVRLPIIPDLRGSLSFAEFGQYLPFIPKRYFLVFDVQSREVRGEHAHKELHQFLVCVKGACSVMVDDGNCREEYILNTPGAALHIPPLVWGVQYKYSPDAVLMVLASDVYKPEDYIRDYDQFIALVKKLEHHHHHH", "soluble on expression in E. coli": "not soluble"},
      {"sequence": "MKIFNNVHCRIRNTISCSNYIFSAVWNFLISVFINKTNFNNSVYCRIFKVSIGLRKSISSTTRTRWVPVVFICSRSTNRWTGARSVNPIRNLIYIKLSILNKVRPIFRLEHHHHHH", "soluble on expression in E. coli": "not soluble"},
      {"sequence": "MGHHHHHHSHMPMYQVKPYHGGGAPLRVELPTCMYRLPNVHGRSYGPAPGAGHVQEESNLSLQALESRQDDILKRLYELKAAVDGLSKMIQTPDADLDVTNIIQADEPTTLTTNALDLNSVLGKDYGALKDIVINANPGSPPLSLLVLHRLLCEHFRVLSTVHTHSSVKSVPENLLKCFGEQNKKQPRQDYQLGFTLIWKNVPKTQMKFSIQTMCPIEGEGNIARFLFSLFGQKHNAVNATLIDSWVDIAIFQLKEGSSKEKAAVFRSMNSALGKSPWLAGNELTVADVVLWSVLQQIGGCSVTVPANVQRWMRSCENLAPFNTALKLLK", "soluble on expression in E. coli": "not soluble"},
      {"sequence": "STPGPGASAPNSPMALLTLNCEKEMDDVIEDIISLESSYSDDILGFMDAGLQMTNTIPVSANLLDMYSNHALPPAGVSISNSCPSSLPAVKRELSVTPSPGMMHIMDKAGPCGKFDSYQRPDGFPVEVRALAKERQKKDNHNLIERRRRFNINDRIKELGTLIPKSNDPDMRWNKGTILKASVDYIRKLQKEQQNAKELENRQKRLEHANRHLLLRIQELEMQARAHGLTVVASSSLYSAELVARAIKQEPGMGDCTSNLYPHLPSPDMSRPTTLDLNNGTISYNDSPTEDGEPGVYDSPNKASTKLEDMLMDNTLSPVGSSDPLLSSGSPVPSNSSGSSSMDEHDNGC", "soluble on expression in E. coli": "not soluble"},
      {"sequence": "MKFLNVLIVVEDIEKSKKFYYDVLGLKVICDFGENVVLEGNISLQEKKLWLEFINKSDSEVKFNGNDAELYFEEDNFDTFVERLSTMKDIDYVHLAIEHRWGQRAIRFYDLDGHIIEVGETMSSVCRRFLDSGLSIDEVAKRMDVTVEYIESVLELEHHHHHH", "soluble on expression in E. coli": "soluble"},
      {"sequence": "MKLLLLLCISCIPLAYSHDGEPFDYLMFTTIYPTAVCRADDDSVPESCEIPSGTPQWSIHGLWPNFENGSYPQNCRGTPRHFDENLIKSIEDRLVVVWPNLYPKKTIQSFWKHEYDKHGTCAQSEKLFESELAYFTEVMKVFDSIDVAGGLKSVGPSEKPITSSDLKNALSGVTSGKTFQFHCLRDKKTKQFLLGDIRLCLNKDLTIRDCPTDGKHPNRVSRFERSIGRNRRGPPLPSFQPCPAEFIYLPEMSSISKSSDSTSPSIFGRIWSAIKNIGN", "soluble on expression in E. coli": "not soluble"},
      {"sequence": "MSLSGKDLGRAIEQAINKKIASGSVKSKAEVARHFKVQPPSIYDWIKKGSISKDKLPELWRFFSDVVGPEHWGLNEYPIPTPTNSDTKSELLDINNLYQAASDEIRAIVAFLLSGNATEPDWVDHDVRAYIAAMEMKVGKYLKALESERKSQNITKTGTEGHHHHHH", "soluble on expression in E. coli": "soluble"},
      {"sequence": "GVNPRGLGPLQIWQTDFTLEPRMAPRSWLAVTVDTASSAIVVTQHGRVTSVAVQHHWATAIAVLGRPKAIKTDNGSCFTSKSTREWLARWGIAHTTGIPGNSQGQAMVERANRLLKDRIRVLAEGDGFMKRIPTSKQGELLAKAMYALNHKERGENTKTPIQKHWRPTVLTEGPPVKIRIETGEWEKGWNVLVWGRGYAAVKNRDTDKVIWVPSRKVKPDITQKDEVTKKDEASPLFA", "soluble on expression in E. coli": "soluble"},
      {"sequence": "MILAIFSLRLLLIPTIDEPESIVTQLENAIDPVTQVPDFSAITDVAEKKRAFFDFLRPIVQQQNAIIASEREFITDMLAIVENGNALSDSQSAQLNQIFDKYLYAARNVDAKSLNSLLKRVDIIPESMVLIQAANESGWGSSRFAREGFNFFGEWCFSNGCGIVPSSRGSGKTHEVKIFPSVDASVSSYMRNLNSNTAYNLFRSIRADLRAQEAELNADQLIYGLVNYSERQEAYIDELLDMLRHNAKYLVKADV", "soluble on expression in E. coli": "soluble"},
      {"sequence": "MKQVAVISGKGGTGKTTFSATIHALEGGVVADCDVDAPNLHILLKPQILKAEDFIASKKARIMPEKCSSCGLCYDLCRFGAVVAEDGYYVDEKKCEGCAFCFNVCPERAIEMENVKTGDLYVSKTEWGYFVHARLKPGEENTGRLVTEVKNRAKEIAEESNAEFLIVDSAPGVGCPVMASLTGVDAAIIVTEPTVSGLSDMLRILELCEHFRIRPFVVVNKFDLNVNIASEIESYCSENGVEFAGRVPFDKAIPEQIANLNFPFSGKAADKMVEIWKKLREVLLEHHHHHH", "soluble on expression in E. coli": "soluble"},
      {"sequence": "MAEVLMYGLSTCPHCKRTLEFLKREGVDFEVIWIDKLEGEERKKVIEKVHSISGSYSVPVVVKGDKHVLGYNEEKLKELIRG", "soluble on expression in E. coli": "soluble"}
    ]}
  ]
}
